From patent US20070180545A1
“And” between values parts separate entries of the source, which are not always exact repeats. Identical values can stand only once.

How the values were obtained:
[1] = molecular target: TAT-031 as present on the surface of human tumor cell lines (PC3, H1299, HL-60) (human) (UniProt P08195); test: flow cytometry on PC-3 human tumor cells
[2] = molecular target: TAT-031 as present on the surface of human tumor cell lines (PC3, H1299, HL-60) (human) (UniProt P08195); test: flow cytometry on H1299 human tumor cells
[3] = molecular target: TAT-031 as present on the surface of human tumor cell lines (PC3, H1299, HL-60) (human) (UniProt P08195); test: flow cytometry on HL-60 human tumor cells
[4] = molecular target: TAT-031 (full-length clone expressed from phCMV1-TAT-031 on stably transfected cells) (human) (UniProt P08195); test: flow cytometry on BaF3 cells stably transfected with TAT-031 (SLC3A2)

relative geometric mean fluorescence (relative geometric mean fluorescence) [1]: 153 and 98.6 and 86 | relative geometric mean fluorescence (relative geometric mean fluorescence) [2]: 527 and 419 and 389 | relative geometric mean fluorescence (relative geometric mean fluorescence) [3]: 118 and 257 and 205 | relative geometric mean fluorescence (relative geometric mean fluorescence) [4]: 165 and 102
Substance: Mouse monoclonal antibody 44D7 (Abcam, Cat#AB23495)
